{"source": "paper PMC7954794", "about": "“Protein context shapes the specificity of SH3 domain-mediated interactions in vivo” (Nature Communications, 2021)", "molecules": {"B1": {"name": "ABP1 K42K (protein, UniProt P15891 2-592, looked up)", "Actin-binding protein": "ALEPIDYTTHSREIDAEYLKIVRGSDPDTTWLIISPNAKKEYEPESTGSSFHDFLQLFDETKVQYGLARVSPPGSDVEKIIIIGWCPDSAPLKTRASFAANFAAVANNLFKGYHVQVTARDEDDLDENELLMKISNAAGARYSIQTSSKQQGKASTPPVKKSFTPSKSPAPVSKKEPVKTPSPAPAAKISSRVNDNNDDDDWNEPELKERDFDQAPLKPNQSSYKPIGKIDLQKVIAEEKAKEDPRLVQKPTAAGSKIDPSSDIANLKNESKLKRDSEFNSFLGTTKPPSMTESSLKNDDDKVIKGFRNEKSPAQLWAERKAKQNSGNAETKAEAPKPEVPEDEPEGEPDVKDLKSKFEGLAASEKEEEEMENKFAPPPKKSEPTIISPKPFSKPQEPVKAEEAEQPKTDYKKIGNPLPGMHIEADNEEEPEENDDDWDDDEDEAAQPPLPSRNVASGAPVQKEEPEQEEIAPSLPSRNSIPAPKQEEAPEQAPEEEIEEEAEEAAPQLPSRSSAAPPPPPRRATPEKKPKENPWATAEYDYDAAEDNELTFVENDKIINIEFVDDDWWLGELEKDGSKGLFPSNYVSLGN", "modifications": "synonymous codon K42K"}, "B2": {"name": "E13E (protein, UniProt P15891 2-592, looked up)", "Actin-binding protein": "B1 Actin-binding protein", "modifications": "synonymous codon change E13E in SH3"}, "B3": {"name": "ABP1 S45S (protein, UniProt P15891 2-592, looked up)", "Actin-binding protein": "B1 Actin-binding protein", "modifications": "synonymous S45S codon change in SH3 domain"}, "B4": {"name": "ABP1 G44G (protein, UniProt P15891 2-592, looked up)", "Actin-binding protein": "B1 Actin-binding protein", "modifications": "synonymous codon change G44G"}, "B5": {"name": "Abp1SH3 in Abp1: Abp1 with its own SH3 reintroduced by editing (control) (protein)", "chain": "MALEPIDYTTHSREIDAEYLKIVRGSDPDTTWLIISPNAKKEYEPESTGSSFHDFLQLFDETKVQYGLARVSPPGSDVEKIIIIGWCPDSAPLKTRASFAANFAAVANNLFKGYHVQVTARDEDDLDENELLMKISNAAGARYSIQTSSKQQGKASTPPVKKSFTPSKSPAPVSKKEPVKTPSPAPAAKISSRVNDNNDDDDWNEPELKERDFDQAPLKPNQSSYKPIGKIDLQKVIAEEKAKEDPRLVQKPTAAGSKIDPSSDIANLKNESKLKRDSEFNSFLGTTKPPSMTESSLKNDDDKVIKGFRNEKSPAQLWAERKAKQNSGNAETKAEAPKPEVPEDEPEGEPDVKDLKSKFEGLAASEKEEEEMENKFAPPPKKSEPTIISPKPFSKPQEPVKAEEAEQPKTDYKKIGNPLPGMHIEADNEEEPEENDDDWDDDEDEAAQPPLPSRNVASGAPVQKEEPEQEEIAPSLPSRNSIPAPKQEEAPEQAPEEEIEEEAEEAAPQLPSRSSAAPPPPPRRATPEKKPKENPWATAEYDYDAAEDNELTFVENDKIINIEFVDDDWWLGELEKDGSKGLFPSNYVSLGN", "modifications": "left off: DHFR F[1,2], C-terminal, kept | FLAG, C-terminal, kept"}}, "format_in_all_cases": "cell-based, Saccharomyces cerevisiae", "key": {"[1]": {"test_system": "Hua2", "test": "Deep mutational scanning of Abp1 SH3, Abp1-Hua2 DHFR-PCA (DMS score)", "details": "for HUA2_MTX2 = frequencies normalized to the reference condition: Hua2, MTX2, amino acid format; for hua2sc = Frequencies scaled to the synonymous mutation distribution (DMS score): Hua2", "how_it_was_run": "(§1)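 Sequencing of the genomic SH3 locus before and after two rounds of liquid DHFR-PCA selection (72 h, 30 °C each) gave the score. Mutants covering every codon of the domain were expressed from the native ABP1 locus in diploids carrying DHFR-tagged prey.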"}, "[2]": {"test_system": "Lsb3", "test": "Deep mutational scanning of Abp1 SH3, Abp1-Lsb3 DHFR-PCA (DMS score)", "details": "for LSB3_MTX2 = frequencies normalized to the reference condition: Lsb3, MTX2, amino acid format; for lsb3sc = Frequencies scaled to the synonymous mutation distribution (DMS score): Lsb3", "how_it_was_run": "as §1"}, "[3]": {"test_system": "Hua2 and Lsb3", "test": "Deep mutational scanning of Abp1 SH3, quadrant classification from Hua2 and Lsb3 DMS scores", "details": "class from hua2sc and lsb3sc"}, "[4]": {"test_system": "Hua2", "test": "Low-throughput liquid DHFR-PCA of selected Abp1 SH3 mutants (Fig. S3F)", "details": "average", "method": "Liquid DHFR-PCA low-throughput experiments were performed to validate the PPIs identified as affected by the SH3 domain deletions in the high-throughput solid DHFR-PCA screen (256 PPIs weaker or lost and 116 PPIs stronger or gained following domain deletions). Mating and the diploid selection were performed as described for the large-scale experiment, with the exception that the plates were in 384 formats. Following the second diploid selection, diploid cells were inoculated in a 96 v-shaped well plate using a robotically manipulated 96 pin tool in a synthetic complete medium with MSG at pH 6.0 with NAT and HPH. After 48 h of growth, optical density (OD) was read using a TECAN Infinite F200 Pro, and dilutions to 1 OD in sterile nanopure water were prepared. Cells were then diluted to 0.1 OD by combining 25 µl of cell suspension at OD = 1 and 225 µl of PCA selection media without agar in a 96-wells plate. Plates were incubated at 30 °C in a TECAN Infinite M Nano and OD was monitored each 15 min for 72 h. […]\nSelected non-conserved positions (E6 , E13, N15 and N27) sensitivities to mutations for the Abp1-Hua2 PPI were tested in a low -throughput liquid DHFR -PCA assay. The growth of the mutants in the low -throughput experiment (average of four replicates of the total OD for each growth curve, y axis ) is compared to the mutants DMS score (x axis). […]"}, "[5]": {"test_system": "Abp1 (1xFLAG)", "test": "Western blot expression level of Abp1 SH3 mutants (Fig. S3C-D)", "method": "Precultures of yeast cells expressing baits fused with the DHFR F[1,2]-FLAG were grown overnight at 30 °C with agitation in synthetic complete medium. The next day, cells were expanded in synthetic complete medium to reach their exponential phase (OD600 of around 1.0), pelleted, and frozen at −80 °C. The equivalent of fifty OD600 of cells was resuspended in ice-cold yeast lysis buffer (10 mM Tris-HCl pH 7.4, 150 mM NaCl, 0.5 mM EDTA (Millipore Sigma), 1% Triton X-100 (Millipore Sigma), and one cOmplete Mini Protease Inhibitor Cocktail (Millipore Sigma) per 10 mL) with […] glass beads (Millipore Sigma) and disrupted at 4 °C by 10 cycles of 2 min vortexing and 2 min cooldown. The equivalent of […] of lysed cells was used for the immunoprecipitation of the bait proteins using FLAG-M2 agarose beads (Millipore Sigma). The beads were incubated with the cell lysates for 120 min at 4 °C with a slow rotation, followed by three washes with the yeast lysis buffer.\nProtein extracts and affinity-purified baits from yeast and human lysed cells were migrated on 10% polyacrylamide gels. The separated proteins were then transferred to nitrocellulose membranes. Validation of correct protein loading was done with ponceau staining of the membranes. Before the primary antibody incubations, membranes were blocked in 5% milk. Protein signals were detected on an Amersham Imager 600RGB (GE Healthcare) following the incubation of the membranes with the appropriate HRP-conjugated secondary antibodies and the Clarity Western ECL Substrate (Bio-Rad). The antibodies used in this study are M2-HRP (A8592, Sigma, 1/50,000), rabbit anti-FLAG (F7425, Sigma, 1/1000), PAK (SC-881, Santa Cruz, 1/200), p130cas/BCAR1 (SC-860, Santa Cruz, 1/200), actin (Cell Signaling Technology, 1/2000), anti-mouse HRP (Cell Signaling Technology, 1/10,000) and anti-rabbit HRP (Cell Signaling Technology, 1/10,000). The quantification of the WB signals was performed with the Amersham Imager 600 analysis software (GE Healthcare). […]\nC, WB comparing expression levels of selected Abp1 SH3 mutants with WT Abp1. An asterisk represents a stop codon, which inhibits translation of the 1xFLAG epitope. D, Quantification of the relative level of expression of Abp1 SH3 mutants by WB as in C, (log2 of Abp1 SH3 mutant/Abp1 WT ratio, WB relative level of expression of 0 for WT Abp1) compared to their DMS scores (Hua2 (left): Pearson’s r = -0.34, p-value = 0.46, Lsb3 […]\n(right): Pearson’s r = -0.81, p-value = 0.03). […]\nMost […]\ninterface residues sensitive to mutations, such as Y7, E13, E16, V3 1, D32, D34, L48 and Y53, specifically affect Hua2 PPI. See also Supplementary Table 4."}, "[6]": {"test_system": "Hua2 and Lsb3", "test": "Deep mutational scanning of Abp1 SH3, quadrant by Hua2 and Lsb3 DMS scores"}, "[7]": {"test_system": "Abp1 PPIs", "test": "DHFR-PCA of Abp1 SH3-swapped baits (Fig. 2B-D, S2C, S2F)", "details": "DHFR-PCA, quadruplicate", "how_it_was_run": "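Yeast DHFR-PCA in which Abp1 baits, carrying their SH3 replaced by CRISPR–Cas9 with one of 27 yeast SH3s or human CTTN, HCLS1 or DBNL SH3s, were mated against 575 SH3-associated DHFR F[3] preys plus 40 negative controls. Four tests were run per PPI. Diploids were selected twice (48 h, 30 °C), then grown 4 days on PCA selection media.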"}, "[8]": {"test_system": "growth of ABP1 SH3-swapped strains in hygromycin B", "test": "Hygromycin B resistance assay in liquid culture (Fig. S2E)", "details": "37 °C, 24 h, n = 3", "method": "For the hygromycin B resistance assays in liquid cultures, the ABP1 SH3 swapped strains including the ABP1 SH3-deleted and ABP1 KO strain were grown overnight at 30 °C as precultures in synthetic complete medium with MSG. The next day, OD was measured with a TECAN Infinite F200 Pro plate reader, and the cultures were diluted to OD of 1.0 in sterile nanopure water. The different strains were further diluted at 0.1 OD by adding 25 µl of cultures to 225 µl of synthetic complete medium with MSG or with MSG and Hygromycin B 120 µg/mL in 96 wells plate (final concentration of 108 µg/mL). Cells were incubated in a TECAN Infinite M Nano plate reader at 37 °C for 24 h and OD was measured every 15 min."}}}
{"molecule": "B1", "values": [{"measurement": "hua2sc (DMS score)", "setting": "[1]; Abp1-Hua2, frequencies scaled to the synonymous mutation distribution (DMS score)", "value": -0.1876}, {"measurement": "HUA2_MTX2", "setting": "[1]; Abp1-Hua2 DHFR-PCA, frequencies normalized to the reference condition, amino acid level", "value": 1.425}, {"measurement": "lsb3sc (DMS score)", "setting": "[2]; Abp1-Lsb3, frequencies scaled to the synonymous mutation distribution (DMS score)", "value": 0.08611}, {"measurement": "LSB3_MTX2", "setting": "[2]; Abp1-Lsb3 DHFR-PCA, frequencies normalized to the reference condition, amino acid level", "value": 1.586}, {"measurement": "quadrant", "setting": "[3]", "value": "Neutral"}]}
{"molecule": "B2", "values": [{"measurement": "DMS score Hua2", "setting": "[1]; Abp1-Hua2 DHFR-PCA, WT = 0, Fig. S3C-D", "value": -0.2784}, {"measurement": "DMS Score", "setting": "[1]; condition HUA2_MTX2, amino acid mutation format, Fig. S3F", "value": 1.334}, {"measurement": "DMS score Lsb3", "setting": "[2]; Abp1-Lsb3 DHFR-PCA, WT = 0, Fig. S3C-D", "value": -0.3311}, {"measurement": "ave_au (DMS validation)", "setting": "[4]", "value": 78.0323, "unit": "au"}, {"measurement": "Ratio Mutant/WT Flag", "setting": "[5]; Western blot Flag signal of mutant relative to WT", "value": 0.6362}, {"measurement": "Flag (2 bands)", "setting": "[5]; Western blot, Flag signal, 2 bands", "value": 23257}]}
{"molecule": "B3", "values": [{"measurement": "HUA2_MTX2 = frequencies normalized to the reference condition", "setting": "[1]", "value": 1.852}, {"measurement": "hua2sc = Frequencies scaled to the synonymous mutation distribution (DMS score)", "setting": "[1]", "value": 0.2394}, {"measurement": "LSB3_MTX2 = frequencies normalized to the reference condition", "setting": "[2]", "value": 1.916}, {"measurement": "lsb3sc = Frequencies scaled to the synonymous mutation distribution (DMS score)", "setting": "[2]", "value": 0.4157}, {"measurement": "quadrant", "setting": "[6]", "value": "Neutral"}]}
{"molecule": "B4", "values": [{"measurement": "HUA2_MTX2 = frequencies normalized to the reference condition", "setting": "[1]", "value": 1.505}, {"measurement": "hua2sc = Frequencies scaled to the synonymous mutation distribution (DMS score)", "setting": "[1]", "value": -0.1077}, {"measurement": "LSB3_MTX2 = frequencies normalized to the reference condition", "setting": "[2]", "value": 1.253}, {"measurement": "lsb3sc = Frequencies scaled to the synonymous mutation distribution (DMS score)", "setting": "[2]", "value": -0.247}, {"measurement": "quadrant", "setting": "[6]", "value": "Neutral"}]}
{"molecule": "B5", "values": [{"measurement": "Kendall's τ of PPI profile with WT Abp1", "setting": "[7]", "value": 0.93}, {"measurement": "Hygromycin phenotype", "setting": "[8]", "value": "fully reproduces WT sensitivity"}]}
